Measured values as given in the supplement of paper PMC9170038.

Test system: MS2 coat protein
Assay: apparent KD of MS2 coat protein; higher = weaker reporter binding
Settings: Eterna round: R107
In short: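 Designed RNA switches were transcribed on-chip from Illumina sequencing clusters and titrated with SNAP-549-labelled MS2 coat protein in twofold steps from 0.7 or 1.5 nM up to 3 µM. Each step lasted 0.8–1.5 h at first and 10–20 min by the end, in 100 mM Tris-HCl pH 7.5, 80 mM KCl and 4 mM MgCl2, without or with constant ligand. Apparent KD is the median, for each design, of fits to normalised cluster binding curves.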

[1] = input ligand: theophylline 20 uM
[2] = input ligand: tryptophan 2.4 mM
[3] = input ligand: theophylline 2 mM

Sequence | apparent KD of MS2 coat protein (input ligand: arginine 13.2 mM) [nM] | apparent KD of MS2 coat protein [1] [nM] | apparent KD of MS2 coat protein [2] [nM] | apparent KD of MS2 coat protein [3] [nM] | apparent KD of MS2 coat protein (input ligand: none) [nM]
UGAUCCUACAGAGAUACCAGUGCCACUGAGUGACCAGACACAUGAGGAUCACCCAUGUAACACCCUUGGCAGCUCAACUAGAGGG [Same State Theophylline B GF18] | 16.8 | 22.3 | 19.7 |  | 
UAAUGCAGGUCGGCCGCCACUACACACAUGAGGAUCACCCAUGUAGUUACUGGGUGAAGUGGCAGUAGGACCGGGACCUGCAUAC [Brourdmod04] | 165 | 578 |  | 833 | 
AGUCUUAUAGGAAGGAGCGCAAUCAUAACAUGAGGAUCACCCAUGUCGAGGUGAGGGUCAUUGCAGGUAGGUCGCCUAACUAAGA [Same State - Arginine B (Freestyle 8)] | 126 | 121 | 96.5 | 344 | 281
UGAUACCAGUCGGCCGCCACUACAUGAGGAUCACCCAUGUAUGGGUCAAUGCUAGAUACUAGCAGUAGGACCGGGACUGGUAUCU | 11.4 | 14.8 |  | 13.2 | 
ACCGAGGCAAUGGAUACCAGUGCGCCACAAUCGUGCUUCAACAUGAGGAUCACCCAUGUGCACCCUUGGCAGCCAACGGGCUCAU [theeternabot_exclusion_MS2_Theo_B_19] | 15 | 25.3 | 19.9 |  | 
UGUAUAUACGGAAGGAGCGUGUAAGAUUAAGAACAUGAGGAUCACCCAUGUUUUAAGGGAACACAGGUAGGUCGCCGUAUAUAUG [11.O] | 9.29 | 14.1 | 10.3 | 11.7 | 12.4
GGGCCCGGGCGCGAGCCCGGGCCCAUUGAUACCAGUGAGAGAGAGCGCCCUUGGCAGCGAAUCCUAACAUGAGGAUCACCCAUGU [5.N] | 49.5 | 84.6 | 41.6 | 84.3 | 51.6
CUACAUGUAGUUAAACCGGUCAACAAUAAUCGAGGACCGGUACGGCCGCCACUCGAUGUGUUAUACACAUGAGGAUCACCCAUGU [Tryptophan A 15] | 23.3 | 27.2 |  | 27.8 | 
AGUACAUGAGGAUCACCCAUGUACCAUGAUACCAGACAUGAAAAUGUCCCUUGGCAGCGUGGGUGAGGCAUCCGAAAGGAUGCCC [#05 SameState-TheophyllineA] | 51.1 | 185 | 77.7 | 30.5 | 223
GCGACCCUGAGAUCCUACGUAACGUGAACACGAGGACCGGUACGGCCGCCACUCGAGAGAACAUGAGGAUCACCCAUGUCUGAGC [e-trypA-0] | 17.3 | 37.2 |  | 30.8 | 
UAUAUAUACUCGGCCGCCACUGAGAGAGUCAUGUAAACAUGAGGAUCACCCAUGUAAUAUAUAUACAGGACCGGGAGUAUAUGAA [4.B] | 11.8 | 17.7 |  | 15.5 | 
UGUAUGGACUGAAGGAGCGCCUCAAAACAUGAGGAUCACCCAUGUGGACAAUAAGUCCUUGGGCAGGUAGGUCGCAGUCCAUACU [ArgBX 6 #StaticStem #MS2Late] | 81.4 | 84.6 | 60.9 | 85.3 | 50
CUAUGGAUAAGAAGGAGCGUCGAAAAUGGGUAAACAUGAGGAUCACCCAUGUAAAGGGAACGACAGGUAGGUCGCUUAUUUAUAG [AstromonsSSArgB#7] | 107 | 190 | 192 | 213 | 179
UAACAUGAGGAUCACCCAUGUAUAGUCGAUACCAGCUCAAGGAAGAGCCCUUGGCAGCGACACUGCCAAGCAUGGGUCAUGGCAG [(Ms2)-(Theo)-(T)'-(M)'-(T)''_Design5] | 20.7 | 31.9 | 19.5 |  | 
GGGCCCGGGCGCGAGCCCGGGCCCAUUGAUACCAGUGAUAUAUAGCGCCCUUGGCAGCGAAUCCUAACAUGAGGAUCACCCAUGU [5.I] | 23.7 | 65.2 | 42.7 | 53.2 | 38.8
GGUGGCGUGACGGAUACCAGCCACCACCGCAAGGCCACAUGAGGAUCACCCAUGUUGGGUGGCCCUUGGCAGCUGUCGUGCGGCG [#1 Same State - Theophylline B Attempt #20 (HarryS)] | 451 | 324 | 341 | 431 | 263
AGCGGAACGGAAGGGUCCCGAAAUUGUGAUACCAGCCUUGAAUCCGGCCCUUGGCAGCACAUGAGGAUCACCCAUGUACUGCGGU [Arimaed] | 11.4 | 20.7 | 13.1 |  | 
AGGACGGUCGGAAGGAGCGGUACAUGAGGAUCACCCAUGUACCUCUGGGCAUCCGUAGUGUGCCAGGUAGGUCGCCGAUUGCGGG [Lareerra] | 15.7 | 19.5 | 11.8 | 16.5 | 12
CAUGGCUGUGCGGCCGCCACUGGCUCAUCCUGCAUUACAUGAGGAUCACCCAUGUUGCGGCCUCCCAGGACCGGGCAUAGCCUGA [Abediat] | 39.5 | 511 |  | 571 | 

Sequence | apparent KD of MS2 coat protein (input ligand: arginine 13.2 mM) [nM] | apparent KD of MS2 coat protein [1] [nM] | apparent KD of MS2 coat protein [2] [nM] | apparent KD of MS2 coat protein [3] [nM] | apparent KD of MS2 coat protein (input ligand: none) [nM]
AUGGAACAUGAGGAUCACCCAUGUGAUGAUACCAGAUUAACGCUUAUCCCUUGGCAGCAUGUCCGCCCUCAACCUGUGGCGUAUU [theeternabot_sameState_MS2_Theo_A_50] | 21.5 | 36 | 20.3 |  | 
UAUCCACAUGAGGAUCACCCAUGUUAGGAAGGAGCGGUGAGUGCACCAGGUAGGUCGCCUAGCUGAGGACUGUCGGUGGAUUCGU [Exclusion - Arginine A (Freestyle 20)] | 39.7 | 67.3 | 47.7 | 57.1 | 88
AGAACCCAAGAGGAUACCAGAACGACAAUCAAAUCUUUUUACAUGAGGAUCACCCAUGUUUUCCCUUGGCAGCCUCAUGCACGAC [theeternabot_exclusion_MS2_Theo_B_43] | 47.1 | 108 | 59.6 |  | 
GGGUACAUCGCGGCCGCCACUCGUGUAAAUACAUGAGGAUCACCCAUGUCGAUGGAGACAUCGGAGAGGACCGGGUGAUGUACCG | 110 | 114 | 46.7 | 81.5 | 81
ACGAUAGGACAUGAGGAUCACCCAUGUGAUACCAGCCUGGAAACAGGCCCUUGGCAGCACAAAUACUCCAGAAACCUAUCGAAAA [MAT - Exclusion Theophlline A - Mod of Eli - D5] | 103 | 263 | 337 |  | 
CGGUUUGUGAUGGAUACCAGCAGAGUGAAUGUUUAUCCUGACAUGAGGAUCACCCAUGUGUGCCCUUGGCAGCUGUUGUGGGCUG [8.Z] | 54.4 | 100 | 63.7 |  | 
AGCCCUGUACUAGAUACCAGCUACAUGAGGAUCACCCAUGUGCGUCAAGACUGACUGUGUAGCCCUUGGCAGCUACUCGCAUGUA [Exclusion - Theophylline B (Freestyle 3)] | 13.7 | 23.1 | 14.9 |  | 
UUCAAAGGGAACGGUGCUGGUGACAGAGAUACCAGCGCGGUAACGCGCCCUUGGCAGCUCAGAACAUGAGGAUCACCCAUGUAAU [Exclusion Theophylline A GF23] | 15.9 | 20.7 | 15.4 |  | 
CGCAACAUGAGGAUCACCCAUGUAAUGACGCGAGGACCGGUACGGCCGCCACUCGCCUGGCAGUGAGCGCAUGCGGCCUGGGUAU [Exclusion Tryp A GF8] | 10.6 | 16.5 |  | 14.3 | 
UCGUGUAUAUCGGAUACCAGUGAGAAGGAUACAUGAGGAUCACCCAUGUGAGUUGAUGUACACCCUUGGCAGCUGUAUAUAUCUA [.plullin] | 36 | 62.7 | 47.9 |  | 
CUUGAGACAUGAGGAUCACCCAUGUCCGAAGGAGCGUGCGAAAGCACAGGUAGGUCGCGGACGUGAGGAUCUCCCAUGUGAGCGA [#25 Exclusion - Arginine A] | 14.3 | 28.2 | 17.8 | 25.7 | 35.9
CGCGGGCCACAUGAGGAUCACCCAUGUGAAGGAGCGGCGAAUAAGCCAGGUAGGUCGCGCAUGAAUAAAUCAUGUAGGUGGCGAA [XArg-A 10 V1&2] | 16.4 | 22.8 | 20.2 | 21.6 | 
UGACGAGGCCUGGAUACCAGCGACAUGAGGAUCACCCAUGUAUGAGGAUCAGCCAUGUUAUGCCCUUGGCAGCCACGAAGGUCAG [WQQMULLIN] | 21.6 | 38.2 | 22.9 | 220 | 25.4
AUCAUAAUAGACUCGUUAGAUUAUAUGGAACGAGGACCGGUACGGCCGCCACUCGUGAUGUACAUGAGGAUCACCCAUGUUAGCA [JR_SSTryptoA_Sub002] | 13.1 | 17.4 |  | 17.3 | 
AAUGUAUGGCACAUGAGGAUCACCCAUGUGCGAGGACCGGUACGGCCGCCACUCGGUCGGUGGUUAAUGAAGCUAUACAUUAAUG [XTryp A #13] | 26.8 | 53.5 |  | 55.1 | 
CCAUGCAGGUCGGCCGCCACUACACACAUGAGGAUCACCCAUGUAGUUACUGGGUGAAGUGGCAGUAGGACCGGGACCUGCAUAU [Brourdmod11] | 94.5 | 330 | 1020 | 504 | 284
ACGUAAAGCAGAAGGAGCGUCUUCAAUUUACAUGAGGAUCACCCAUGUUUUGUGAUCAUAUGACAGGUAGGUCGCUGAAGUACGA [JR_SSArginiB_Sub002] | 85.9 | 152 | 123 | 141 | 
UAUAUAGAAGGAUGUCAUAUAGAUGCAGAAGGAGCGUAGGAAACUACAGGUAGGUCGCUGAGGUACAUGAGGAUCACCCAUGUAG [SSArg A #17 Slice of Pi] | 32.6 | 54 | 26.7 | 45.5 | 33.1
CAUGGGUGGGUGCUGCCACCCAUUGGUGAUACCAGCAUCGAAAGAUGCCCUUGGCAGCACCAACAUGAGGAUCACCCAUGUAAUA [(M)'-(T)'-(M)''-(T1)-(T2)-(M1)-(M2)_Design4] | 58.6 | 145 | 67.8 |  | 
